This passage reports EC50 results from patent publication US20230227537A1.

The assay addresses recombinant prefusion stabilized SARS-CoV-2-2P spike protein (SARS-CoV-2) (UniProt P0DTC2).

As to “D72-15: VHH72-GS-hIgG1hinge-hIgG1Fc-L234A-L235A-P329G (Fc fusion)”, the half-maximal effective concentration (EC50) came out at 0.014 µg/mL.
